Literature values in patent publication US9421247B2, “Biodegradable nanoparticles as novel hemoglobin-based oxygen carriers and methods of using the same” (Vindico NanoBio Technology Inc., priority 2010, dated 2016).

Substance | adverse physiological effects on infusion/transfusion into animals
PolyHeme™: commercial acellular HBOC (Northfield Lab, Evanston, Ill., USA) | induce vasoconstriction
free hemoglobin: cell-free hemoglobin infused into animals | significant vasoconstriction and kidney damage
